Like-named read-outs stand apart in the source and are kept apart here.
How the values were obtained:
[1] = biological target: the molecule itself; experiment: SEC
[2] = biological target: the molecule itself; experiment: SEC; remark: listed apart in the source

B1: full-length (FL) human Twinkle (aa 43-684) (enzyme, UniProt Q96RR1 43-684, looked up)
chain: ETLQALDMPVLPVTATEIRQYLRGHGIPFQDGHSCLRALSPFAESSQLKGQTGVTTSFSLFIDKTTGHFLCMTSLAEGSWEDFQASVEGRGDGAREGFLLSKAPEFEDSEEVRRIWNRAIPLWELPDQEEVQLADTMFGLTKVTDDTLKRFSVRYLRPARSLVFPWFSPGGSGLRGLKLLEAKCQGDGVSYEETTIPRPSAYHNLFGLPLISRRDAEVVLTSRELDSLALNQSTGLPTLTLPRGTTCLPPALLPYLEQFRRIVFWLGDDLRSWEAAKLFARKLNPKRCFLVRPGDQQPRPLEALNGGFNLSRILRTALPAWHKSIVSFRQLREEVLGELSNVEQAAGLRWSRFPDLNRILKGHRKGELTVFTGPTGSGKTTFISEYALDLCSQGVNTLWGSFEISNVRLARVMLTQFAEGRLEDQLDKYDHWADRFEDLPLYFMTFHGQQSIRTVIDTMQHAVYVYDICHVIIDNLQFMMGHEQLSTDRIAAQDYIIGVFRKFATDNNCHVTLVIHPRKEDDDKELQTASIFGSAKASQEADNVLILQDRKLVTGPGKRYLQVSKNRFDGDVGVFPLEFNKNSLTFSIPPKNKARLKKIKDDTGPVAKKPSSGKKGATTQNSEICSGQAPTPDQPDTSKRSK
In the case of B1, the “stoichiometry N” value [1] is reported as roughly 7.

B2: Twinkle C-terminal domain with linker (CTD, amino acids 360-684) (domain or fragment, human, UniProt Q96RR1 360-684, looked up)
chain: LPAWHKSIVSFRQLREEVLGELSNVEQAAGLRWSRFPDLNRILKGHRKGELTVFTGPTGSGKTTFISEYALDLCSQGVNTLWGSFEISNVRLARVMLTQFAEGRLEDQLDKYDHWADRFEDLPLYFMTFHGQQSIRTVIDTMQHAVYVYDICHVIIDNLQFMMGHEQLSTDRIAAQDYIIGVFRKFATDNNCHVTLVIHPRKEDDDKELQTASIFGSAKASQEADNVLILQDRKLVTGPGKRYLQVSKNRFDGDVGVFPLEFNKNSLTFSIPPKNKARLKKIKDDTGPVAKKPSSGKKGATTQNSEICSGQAPTPDQPDTSKRSK
In the case of B2, the “stoichiometry N” value [2] is reported as roughly 12 subunit.

From doi:10.1101/2022.11.10.516034 (bioRxiv, 2022)
